Experimental data taken from patent US10487337B2, “Methods for monocot plant improvement” (Agresearch Limited, priority 2014, dated 2019).

Molecular target: T1, BZR1 (Arabidopsis thaliana, UniProt Q8S307)
T1 construct: expressed in transfected cells; host or cells: yeast strain MaV203
T1 sequence (Q8S307 with tags, fused parts or gaps): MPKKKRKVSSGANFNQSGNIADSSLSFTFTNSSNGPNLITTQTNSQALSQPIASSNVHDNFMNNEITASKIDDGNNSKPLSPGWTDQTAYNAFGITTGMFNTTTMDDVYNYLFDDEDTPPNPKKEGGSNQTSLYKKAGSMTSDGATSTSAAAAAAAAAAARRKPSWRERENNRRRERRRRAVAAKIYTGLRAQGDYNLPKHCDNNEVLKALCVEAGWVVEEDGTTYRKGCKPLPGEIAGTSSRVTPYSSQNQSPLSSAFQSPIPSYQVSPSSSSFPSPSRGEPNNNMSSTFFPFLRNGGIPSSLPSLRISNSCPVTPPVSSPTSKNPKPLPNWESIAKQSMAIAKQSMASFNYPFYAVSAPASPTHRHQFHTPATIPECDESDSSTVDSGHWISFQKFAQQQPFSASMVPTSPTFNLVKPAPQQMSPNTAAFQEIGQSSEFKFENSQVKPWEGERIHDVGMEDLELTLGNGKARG
Assay: Yeast two hybrid (Y2H) interaction with BZR1
Format: binding
Description: The constructs for Y2H and BiFC assays were generated as follows. Arabidopsis DNA sequences encoding the open reading frames for; At4g14713 (PPD1) and truncation and deletion derivatives of PPD1: PPD1; PPD1Δppd (N-terminal truncation of sequences encoding aa 1-61), PPD1Δtify, (internal deletion of sequences encoding aa 154-186), PPD1Δjas*(C-terminal truncation of sequences encoding aa 229-313) (FIG. 5), At4g28910 (NINJA), At1g15750 (TPL), At1g75080 (BZR1), a synthetic PUAS-35S promoter, and sequences encoding GAL4DBD and c-myc fusion proteins were synthesised and sequence verified by GeneArt. Most sequences were supplied as clones in pENTR221 ready for Gateway cloning into yeast and plant expression vectors. The exception, a promoter sequence for in planta transcription activation assays, incorporating 5′ Xho1 and 3′ Nco1 restriction enzyme sites, was supplied cloned in pMA-RQ. Plasmids for the transient LUC reporter assay: A synthetic promoter with 5×UAS GAL4 DNA binding sites upstream of a −105 bp CaMV35S promoter was cloned into the XhoI-NcoI sites within a dual luciferase construct pNWA62, which contains an intron-containing Firefly Luciferase gene (LUC) and 35Spro::Renilla Luciferase (REN) as an internal standard, to construct pAML7. […]

B1: TPL: TOPLESS transcriptional co-repressor of Arabidopsis, SEQ ID NO: 60 (protein)
chain: MSSLSRELVFLILQFLDEEKFKETVHKLEQESGFFFNMKYFEDEVHNGNWDEVEKYLSGFTKVDDNRYSMKIFFEIRKQKYLEALDKHDRPKAVDILVKDLKVFSTFNEELFKEITQLLTLENFRENEQLSKYGDTKSARAIMLVELKKLIEANPLFRDKLQFPTLRNSRLRTLINQSLNWQHQLCKNPRPNPDIKTLFVDHSCGPPNGARAPSPVNNPLLGGIPKAGGFPPLGAHGPFQPTASPVPTPLAGWMSSPSSVPHPAVSAGAIALGGPSIPAALKHPRTPPTNASLDYPSADSEHVSKRTRPMGISDEVNLGVNMLPMSFSGQAHGHSPAFKAPDDLPKTVARTLSQGSSPMSMDFHPIKQTLLLVGTNVGDIGLWEVGSRERLVQKTFKVWDLSKCSMPLQAALVKEPVVSVNRVIWSPDGSLFGVAYSRHIVQLYSYHGGEDMRQHLEIDAHVGGVNDISFSTPNKQLCVITCGDDKTIKVWDAATGVKRHTFEGHEAPVYSVCPHYKENIQFIFSTALDGKIKAWLYDNMGSRVDYDAPGRWCTTMAYSADGTRLFSCGTSKDGESFIVEWNESEGAVKRTYQGFHKRSLGVVQFDTTKNRYLAAGDDFSIKFWDMDAVQLLTAIDGDGGLQASPRIRFNKEGSLLAVSGNENVIKIMANSDGLRLLHTFENISSESSKPAINSIAAAAAAAATSAGHADRSANVVSIQGMNGDSRNMVDVKPVITEESNDKSKIWKLTEVSEPSQCRSLRLPENLRVAKISRLIFTNSGNAILALASNAIHLLWKWQRNERNATGKATASLPPQQWQPASGILMTNDVAETNPEEAVPCFALSKNDSYVMSASGGKISLFNMMTFKTMATFMPPPPAATFLAFHPQDNNIIAIGMDDSTIQIYNVRVDEVKSKLKGHSKRITGLAFSNVLNVLVSSGADAQLCVWNTDGWEKQRSKVLPLPQGRPNSAPSDTRVQFHQDQAHFLVVHETQLAIYETTKLECMKQWAVRESLAPITHATFSCDSQLVYASFMDATVCVFSSANLRLRCRVNPSAYLPASLSNSNVHPLVIAAHPQEPNMFAVGLSDGGVHIFEPLESEGKWGVAPPAENGSASGAPTAPSVGASASDQPQR
modifications: Consensus sequence
- interaction with BZR1: direct interaction occurs
